Laboratory results taken from patent publication US20020120098A1, “Enhanced stimulation of erythropoiesis” (priority 1996, published 2002).
Where two headings read alike, the source gives them in different places. Values belong to the compound of their own block, whether it stands above or below them.

Key:
[1] = Half-life and blood level of Epo versus HEMOLINK after single i.v. administration; assay type: in vivo; details: single i.v. 225 U/kg
Source text: Another strategy for the co-administration of Epo and hemoglobin is to reduce the number of Epo administrations required during therapy. Several Epo therapies follow the regimen of three weekly injections, either intravenously or subcutaneously. Multiple low dose or single high dose injections of Epo are required due to its relatively short half-life in vivo. […] HEMOLINK™ has a longer half-life. […] Longer half-life of the cross-linked hemoglobin can therefore compensate for Epo which may decline at a much faster rate. Thus, hemoglobin co-administered with Epo could prolong the effectiveness of Epo and therefore this combination therapy can be used to reduce the required frequency of Epo administrations.

[2] = cited from earlier work
CFU-GM = assay: Colony formation assay (CFA), cord blood LDMNC: CFU-GM colonies; assay type: cell-based, human
Description: (§1) This technique, referred to as the colony formation assay (CFA), is the most widely used biological assay to identify and enumerate erythroid progenitors present in hematopoietic tissue such as blood and bone marrow. Cell populations containing erythroid progenitors are plated in semi-solid suspensions of methyl cellulose, agar, low melting agarose or related substances in nutrient culture medium containing 1-3 U/ml Epo and 10 ng/ml IL-3 to specifically stimulate erythroid progenitors. Plates are incubated at 37° C. for 14 days during which time the erythroid progenitors form characteristic hemoglobinized (red) colonies. Two distinct but related erythroid progenitors can be distinguished based on colony size and morphology: BFU-E, the most primitive recognizable erythroid progenitor forms large multilobular colonies whereas the more mature CFU-E forms smaller spherical colonies.
(§2) Adult hemoglobin was purified according to U.S Pat. Nos. 5,439,591 and 5,545,328 to obtain HAo and HEMOLINK™ was prepared from HAo according to U.S. Pat. No. 5,532,352. Human umbilical cord blood intended for discard was collected from the umbilical vein of placentas immediately postpartum into 10 ml vacutainer tubes containing 143 USP units/ml sodium heparin. Low density mononuclear cells were separated from red blood cells by centrifugation over a 1.077 g/ml density gradient Cells removed from the plasma/density gradient interface were incubated overnight in a tissue culture flask with 10 ml cell culture medium containing 10% fetal bovine serum, and non-adherent LDMNC were further purified with an additional density gradient step. The LDMNC were then plated into colony formation assays (CFA) on the second day of isolation. In the CFA, LDMNC were plated at a density of 1×10^5 cells/ml in Iscoves modified Dulbeccos cell culture medium containing 0.8% methyl-cellulose, 30% fetal bovine serum, 1% bovine serum albumin, 0.1 mM 2-mercaptoethanol and 2 mM L-glutamine. Unless indicated otherwise, under standard CFA conditions 2 U/ml Epo and 10 ng/ml IL-3 are added to the formulation to stimulate hematopoietic progenitor growth, specifically BFU-E, CFU-E and CFU-GM.
(§3) Each condition was tested in duplicate in from 2-18 independent experiments. Cultures were maintained in a humidified incubator at 37° C., 5% CO2 and ambient oxygen tensions. The number of hematopoietic progenitors was scored between days 13-15 by counting the number and types of colonies present.
(§4) The effect of the various additives on the inhibitory effect of succinylacetone (SA), a heme synthesis inhibitor, on erythroid progenitors was determined. Primary LDMNC were cultured in methyl cellulose as described in Example 1. Cord blood LDMN were plated in the presence of 1.0 mg/ml HAo (15.6 μM; n=12) or HEMOLINK™ (15.6 μM; n=5), 100 μM hemin (n=12), 250 μM FeCl3 (n=11) or no addition (n=12), in absence or presence of 0.5 mM SA. Cultures were maintained in a humidified chamber at 37° C., 5% CO2, and ambient oxygen tensions for 14 days.
HEMOLINK™ was evaluated for its ability to protect erythroid progenitor cells from toxicity due to ganciclovir. Cord blood LDMNC were set up in CFAs in the presence and absence of 1 mg/ml HEMOLINK™ plus 0, 0.1, 1.0, 10, 50 or 100 μM ganciclovir. Conditions for the CFA were similar to those described in Examples 1-4. […] All data are expressed relative to the number of colonies of control plates without HEMOLINK™. The hematopoietic progenitors display different sensitivities to ganciclovir. CFU-E were unaffected by 1 μM ganciclovir. However, a similar inhibition of BFU-E occurs at a 50-fold lower dose of ganciclovir (1 μM). […] Due to the difficulty in scoring CFU-GM in the presence of hemoglobin precipitates, as previously noted, they could not be accurately measured under these conditions. Thus, HEMOLINK™ reduces toxicity of ganciclovir to erythroid progenitors with the most pronounced effect on BFU-E cells.

[3] = test system: total erythroid progenitors (BFU-E+CFU-E); assay: Inhibition of succinylacetone (SA) toxicity to erythroid progenitors in CFA; assay type: cell-based, human; details: 0.5 mM SA only, no other addition
Description: as §4
Results are expressed as the number of total erythroid progenitors (BFU-E+CFU-E) present on plates treated with the various additives in the presence of SA relative to the number present on untreated plates (no SA or other addition). Significant differences in the presence of the respective additives compared to no addition (SA only; relative progenitor number=0.31) are as indicated: *p<0.001, **p<0.0001. Significant differences in the presence of the respective additives compared to no treatment (no SA; solid line at relative erythroid progenitor number=1.0) are as indicated: +p<0.05, ++p<0.001.

CFU-E = assay: Colony formation assay (CFA), cord blood LDMNC: CFU-E colonies; assay type: cell-based, human; details: absence of HEMOLINK
Description: as §1, §2, §3
(§5) Erythroid progenitor colony formation assays were conducted as described in Example 1 except that cultures were incubated at either ambient oxygen tensions (˜20% O2) or 5% O2. The reduced oxygen tension of 5% O2 approximates the physiological intravascular oxygen tension in mammals. The mean fold increase in cord blood BFU-E, CFU-E and CFU-GM progenitor number at 5% O2 produced by 1.0 mg/ml HAo (15.6 μM; n=11) or HEMOLINK™ (15.6 μM; n=6), 100 μM hemin (n=10), 250 μM FeCl3 (n=6) or no addition (n=17-18), is shown FIG. 2. Results are expressed relative to control cells treated only with respective vehicles and cultured at ambient oxygen tensions (˜20% O2; fold expansion=1.0; *p<0.05, **p<0.01).
(§6) Erythroid progenitor colony formation assays were conducted as described in Example 1 except that cultures were initiated in the presence of Epo concentrations ranging from 0-2 U/ml. The mean fold increase in cord blood BFU-E, CFU-E and CFU-GM progenitor number produced by 1.0 mg/ml HAo (15.6 μM; n=9) or HEMOLINK™ (15.6 μM; n=6), 100 μM hemin (n=8), 250 μM FeCl3 (n=6), or no addition (n=9-10) in the presence of reduced Epo concentrations (0.2 U/ml) is shown in FIG. 3. Cultures were maintained at ambient oxygen tensions (˜20% O2) for 14 days. Results are expressed relative to control cells at 2 U/ml Epo treated only with the respective vehicles (solid line at fold expansion=1.0; *p<0.05, **p<0 01). Erythroid progenitor colonies were undetectable in the absence of Epo. […]

BFU-E = assay: Colony formation assay (CFA), cord blood LDMNC: BFU-E colonies; assay type: cell-based, human; details: 0.1-100 μM ganciclovir, absence of HEMOLINK
Description: as §1, §2, §3, §5, §6

Compound: Epo: recombinant human Epo; hormone that stimulates erythroid progenitors
- Epo level ([1]; 0 hours post administration, assuming 85 ml/kg): 2.7 U/ml
- Epo level ([1]; 21 hours post administration): 0.33 U/ml
- Epo level ([1]; 42 hours post administration): 0.041 U/ml
- Epo level ([1]; 63 hours post administration): 0.0052 U/ml
- Epo level ([1]; 84 hours post administration): 0.00065 U/ml
- half-life in plasma ([2]; after a subcutaneous injection): 11.2 to 21.1 h
- half-life in plasma ([2]; after an intravenous injection): 5.6 to 8.8 h
- fraction of subcutaneous dose absorbed into the bloodstream ([2]; subcutaneous): 21.5-46.6%

Compound: CC(=O)CC(=O)CCC(=O)O [SA, Succinylacetone]
- effect of SA on CFU-GM proliferation (CFU-GM; 0.5 mM SA): did not inhibit CFU-GM proliferation
- relative erythroid progenitor number (BFU-E+CFU-E) vs untreated plates [3]: 0.31

- effect on CFU-E at 1 μM ganciclovir (CFU-E; 1 μM ganciclovir): unaffected
- inhibition of CFU-E by ganciclovir (CFU-E; 0.1-100 μM ganciclovir): dose-dependent inhibition
- inhibition of BFU-E by ganciclovir (BFU-E): dose-dependent inhibition
- dose at which CFU-GM are completely inhibited (CFU-GM; human, 14 days): greater than 10 μM
Compound: Nc1nc(O)c2ncn(COC(CO)CO)c2n1 [ganciclovir]
